In patent US9499608:

Legend:
[1] = molecular target: WNV DIII fragment (residues 296-404) of the New York 1999 strain, expressed in E. coli and refolded (West Nile virus, New York 1999 strain) (UniProt Q9Q6P4); experiment: SPR
[2] = molecular target: WNV E ectodomain (residues 1-404) of the New York 1999 strain, expressed in E. coli and refolded (West Nile virus, New York 1999 strain) (UniProt Q9Q6P4); experiment: SPR

Substance: mHu-E16 (mammalian CHO cell-produced humanized E16 monoclonal antibody)
- Kd [1]: 32 nM
- Kd [2]: 45 nM

Substance: pHu-E16 (plant-produced humanized E16 monoclonal antibody against West Nile virus)
- Kd [1]: 41 nM
- Kd [2]: 46 nM
